Results reported in US12281147.

Experiments:
[1] = molecular target: human IL-21R (human) (UniProt Q9HBE5); assay: AlphaSeq yeast mating assay, pH 5 media
[2] = molecular target: human IL-21R (human) (UniProt Q9HBE5); assay: AlphaSeq yeast mating assay, pH 6 media
[3] = molecular target: human IL-21R (human) (UniProt Q9HBE5); assay: AlphaSeq yeast mating assay, pH 7 media

| Substance | Kd [1] | Kd [2] | Kd [3] |
| --- | --- | --- | --- |
| IL-21_L49N (from UniProt Q9HBE4 32-152) (ligand) | 170 µM | – | – |
| IL-21_P108G (from UniProt Q9HBE4 32-152) (ligand) | 11 µM | – | – |
| IL-21_I43S (from UniProt Q9HBE4 32-152) (ligand) | 43 µM | 1.1 µM | – |
| IL-21_M39Q (from UniProt Q9HBE4 32-152) (ligand) | – | 83 µM | – |
| IL-21_L49H (from UniProt Q9HBE4 32-152) (ligand) | 160 µM | – | – |
| IL-21_L42E (from UniProt Q9HBE4 32-152) (ligand) | – | – | 26 µM |
| IL-21_I96G (from UniProt Q9HBE4 32-152) (ligand) | – | 52 µM | – |
| IL-21_W73V (from UniProt Q9HBE4 32-152) (ligand) | 110 µM | 6.5 µM | – |
| IL-21_D33P (from UniProt Q9HBE4 32-152) (ligand) | 40 µM | – | – |
| IL-21_V46N (from UniProt Q9HBE4 32-152) (ligand) | – | 37 µM | – |
| IL-21_I96T (from UniProt Q9HBE4 32-152) (ligand) | – | 66 µM | – |
| IL-21_V57H (from UniProt Q9HBE4 32-152) (ligand) | 1.6 µM | 0.024 µM | – |
| IL-21_L42R (from UniProt Q9HBE4 32-152) (ligand) | 150 µM | – | – |
| IL-21_L42D (from UniProt Q9HBE4 32-152) (ligand) | 1600 µM | 14 µM | – |
| IL-21_I45Y (from UniProt Q9HBE4 32-152) (ligand) | – | 12 µM | – |
| IL-21_L42G (from UniProt Q9HBE4 32-152) (ligand) | – | 32 µM | – |
| IL-21_I100E (from UniProt Q9HBE4 32-152) (ligand) | – | 78 µM | – |
| IL-21_K106S (from UniProt Q9HBE4 32-152) (ligand) | 7.3 µM | – | – |
| IL-21_R34N (from UniProt Q9HBE4 32-152) (ligand) | 0.96 µM | 0.052 µM | – |
| IL-21_R38A (from UniProt Q9HBE4 32-152) (ligand) | 15 µM | – | – |
| IL-21_V98R (from UniProt Q9HBE4 32-152) (ligand) | 0.046 µM | – | – |
| IL-21_Q48K (from UniProt Q9HBE4 32-152) (ligand) | 11 µM | 0.2 µM | – |
| IL-21_I43P (from UniProt Q9HBE4 32-152) (ligand) | 330 µM | – | – |
| IL-21_V57Y (from UniProt Q9HBE4 32-152) (ligand) | 0.046 µM | 0.016 µM | – |
| IL-21_I95P (from UniProt Q9HBE4 32-152) (ligand) | 64 µM | 3.6 µM | – |
| IL-21_F79K (from UniProt Q9HBE4 32-152) (ligand) | – | 5.5 µM | – |
| IL-21_Q80A (from UniProt Q9HBE4 32-152) (ligand) | – | 12 µM | – |

More lines, now with the values ahead:

| Kd [1] | Kd [2] | Kd [3] | Substance |
| --- | --- | --- | --- |
| – | 35 µM | – | IL-21_Q41P (from UniProt Q9HBE4 32-152) (ligand) |
| 250 µM | 41 µM | – | IL-21_F76P (from UniProt Q9HBE4 32-152) (ligand) |
| – | 6.2 µM | – | IL-21_I45H (from UniProt Q9HBE4 32-152) (ligand) |
| 170 µM | – | – | IL-21_R105D (from UniProt Q9HBE4 32-152) (ligand) |
| 330 µM | 55 µM | – | IL-21_L49P (from UniProt Q9HBE4 32-152) (ligand) |
| 20 µM | 0.19 µM | – | IL-21_I45D (from UniProt Q9HBE4 32-152) (ligand) |
| 100 µM | – | – | IL-21_I45P (from UniProt Q9HBE4 32-152) (ligand) |
| – | 0.079 µM | – | IL-21_K104G (from UniProt Q9HBE4 32-152) (ligand) |
| – | 55 µM | – | IL-21_F76D (from UniProt Q9HBE4 32-152) (ligand) |
| 65 µM | 3.4 µM | – | IL-21_W73N (from UniProt Q9HBE4 32-152) (ligand) |
| 0.36 µM | – | – | IL-21_R34A (from UniProt Q9HBE4 32-152) (ligand) |
| 240 µM | – | – | IL-21_L49S (from UniProt Q9HBE4 32-152) (ligand) |
